The record followed here is patent publication US20080248034A1 (MORPHOTEK, published 2008).

The target in this test is tetanus toxoid (TT) (UniProt P04958 2-1315). As to the kind of experiment: antigen-specific ELISA, coated at 1:500 dilution (FIG. 4B). Background: An ELISA detects its analyte on a solid surface through an enzyme-linked reagent.
Chain of tetanus toxoid (TT) (P04958 2-457 limits assumed, chain 1 of 2): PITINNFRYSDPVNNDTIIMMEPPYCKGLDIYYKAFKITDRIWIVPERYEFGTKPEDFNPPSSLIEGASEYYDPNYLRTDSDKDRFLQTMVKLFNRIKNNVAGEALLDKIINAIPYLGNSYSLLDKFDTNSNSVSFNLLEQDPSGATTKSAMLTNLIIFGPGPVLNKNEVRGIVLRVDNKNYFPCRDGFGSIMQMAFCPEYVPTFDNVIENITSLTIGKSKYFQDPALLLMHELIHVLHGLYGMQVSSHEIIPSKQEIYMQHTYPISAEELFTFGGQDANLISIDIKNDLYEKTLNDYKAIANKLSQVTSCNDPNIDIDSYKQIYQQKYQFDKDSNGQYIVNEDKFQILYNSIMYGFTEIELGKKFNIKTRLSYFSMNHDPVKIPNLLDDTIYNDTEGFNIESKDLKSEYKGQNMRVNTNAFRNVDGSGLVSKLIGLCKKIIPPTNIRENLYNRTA
Chain of tetanus toxoid (TT) (P04958 458-1315 limits assumed, chain 2 of 2): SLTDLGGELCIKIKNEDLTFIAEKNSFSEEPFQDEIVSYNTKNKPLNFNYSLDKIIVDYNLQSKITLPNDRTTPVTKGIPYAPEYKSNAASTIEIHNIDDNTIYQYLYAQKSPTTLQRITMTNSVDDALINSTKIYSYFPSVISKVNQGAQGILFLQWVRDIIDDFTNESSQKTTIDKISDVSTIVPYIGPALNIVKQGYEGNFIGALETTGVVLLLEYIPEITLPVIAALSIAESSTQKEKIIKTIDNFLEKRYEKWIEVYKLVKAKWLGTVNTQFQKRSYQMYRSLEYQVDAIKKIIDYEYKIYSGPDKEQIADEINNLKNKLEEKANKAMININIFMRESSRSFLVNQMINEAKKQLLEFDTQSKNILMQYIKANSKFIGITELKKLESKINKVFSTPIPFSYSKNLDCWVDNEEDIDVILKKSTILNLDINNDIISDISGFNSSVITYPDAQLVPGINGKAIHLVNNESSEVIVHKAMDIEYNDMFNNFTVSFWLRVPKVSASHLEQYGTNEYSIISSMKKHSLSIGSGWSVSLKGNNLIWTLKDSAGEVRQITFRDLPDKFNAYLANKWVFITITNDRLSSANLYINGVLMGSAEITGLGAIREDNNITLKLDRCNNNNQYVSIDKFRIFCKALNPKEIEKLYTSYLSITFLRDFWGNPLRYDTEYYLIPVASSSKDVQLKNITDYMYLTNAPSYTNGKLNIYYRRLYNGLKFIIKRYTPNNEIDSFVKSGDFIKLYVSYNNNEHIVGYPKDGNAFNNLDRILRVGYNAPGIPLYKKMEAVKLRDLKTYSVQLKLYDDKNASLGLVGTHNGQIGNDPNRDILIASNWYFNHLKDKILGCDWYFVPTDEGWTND

B1: Fc-TEM1 (soluble recombinant endosialin: full-length TEM1 extracellular domain fused to monomeric murine IgG2b Fc) (Fc fusion, human)
chain: QDPWAAEPRAACGPSSCYALFPRRRTFLEAWRACRELGGDLATPRTPEEAQRVDSLVGAGPASRLLWIGLQRQARQCQLQRPLRGFTWTTGDQDTAFTNWAQPASGGPCPAQRCVALEASGEHRWLEGSCTLAVDGYLCQFGFEGACPALQDEAGQAGPAVYTTPFHLVSTEFEWLPFGSVAAVQCQAGRGASLLCVKQPEGGVGWSRAGPLCLGTGCSPDNGGCEHECVEEVDGHVSCRCTEGFRLAADGRSCEDPCAQAPCEQQCEPGGPQGYSCHCRLGFRPAEDDPHRCVDTDECQIAGVCQQMCVNYVGGFECYCSEGHELEADGISCSPAGAMGAQASQDLGDELLDDGEDEEDEDEAWKAFNGGWTEMPGILWMEPTQPPDFALAYRPSFPEDREPQIPYPEPTWPPPLSAPRVPYHSSVLSVTRPVVVSATHPTLPSAHQPPVIPATHPALSRDHQIPVIAANYPDLPSAYQPGILSVSHSAQPPAHQPPMISTKYPELFPAHQSPMFPDTRVAGTQTTTHLPGIPPNHAPLVTTLGAQLPPQAPDALVLRTQATQLPIIPTAQPSLTTTSRSPVSPAHQISVPAATQPAALPTLLPSQSPTNQTSPISPTHPHSKAPQIPREDGPSPKLALWLPSPAPTAAPTALGEAGLAEHSQRDDRWLDDDD
notes: extracellular domain; Monomeric secreted fusion protein made in CHO cells; also called TEM1-Fcγ; not shown: murine IgG2b Fcγ domain (hinge through CH3), modified: the four cysteine residues responsible for inter-heavy chain disu
In the case of B1, the binding result was “no binding (tested: 5, 10, 50 ug/ml)”.
